Drawing on publication PMC9181621, this text covers stoichiometry N for one substance.

The target of this test is human α2-macroglobulin tetramer, (hα2M)4 (human) (UniProt P01023). The test can be described thus: cryo-EM structure. The note with it: scale: trypsin molecule per disulfide-linked hα2M dimer.
Chain of UniProt P01023 (P01023 24-1474): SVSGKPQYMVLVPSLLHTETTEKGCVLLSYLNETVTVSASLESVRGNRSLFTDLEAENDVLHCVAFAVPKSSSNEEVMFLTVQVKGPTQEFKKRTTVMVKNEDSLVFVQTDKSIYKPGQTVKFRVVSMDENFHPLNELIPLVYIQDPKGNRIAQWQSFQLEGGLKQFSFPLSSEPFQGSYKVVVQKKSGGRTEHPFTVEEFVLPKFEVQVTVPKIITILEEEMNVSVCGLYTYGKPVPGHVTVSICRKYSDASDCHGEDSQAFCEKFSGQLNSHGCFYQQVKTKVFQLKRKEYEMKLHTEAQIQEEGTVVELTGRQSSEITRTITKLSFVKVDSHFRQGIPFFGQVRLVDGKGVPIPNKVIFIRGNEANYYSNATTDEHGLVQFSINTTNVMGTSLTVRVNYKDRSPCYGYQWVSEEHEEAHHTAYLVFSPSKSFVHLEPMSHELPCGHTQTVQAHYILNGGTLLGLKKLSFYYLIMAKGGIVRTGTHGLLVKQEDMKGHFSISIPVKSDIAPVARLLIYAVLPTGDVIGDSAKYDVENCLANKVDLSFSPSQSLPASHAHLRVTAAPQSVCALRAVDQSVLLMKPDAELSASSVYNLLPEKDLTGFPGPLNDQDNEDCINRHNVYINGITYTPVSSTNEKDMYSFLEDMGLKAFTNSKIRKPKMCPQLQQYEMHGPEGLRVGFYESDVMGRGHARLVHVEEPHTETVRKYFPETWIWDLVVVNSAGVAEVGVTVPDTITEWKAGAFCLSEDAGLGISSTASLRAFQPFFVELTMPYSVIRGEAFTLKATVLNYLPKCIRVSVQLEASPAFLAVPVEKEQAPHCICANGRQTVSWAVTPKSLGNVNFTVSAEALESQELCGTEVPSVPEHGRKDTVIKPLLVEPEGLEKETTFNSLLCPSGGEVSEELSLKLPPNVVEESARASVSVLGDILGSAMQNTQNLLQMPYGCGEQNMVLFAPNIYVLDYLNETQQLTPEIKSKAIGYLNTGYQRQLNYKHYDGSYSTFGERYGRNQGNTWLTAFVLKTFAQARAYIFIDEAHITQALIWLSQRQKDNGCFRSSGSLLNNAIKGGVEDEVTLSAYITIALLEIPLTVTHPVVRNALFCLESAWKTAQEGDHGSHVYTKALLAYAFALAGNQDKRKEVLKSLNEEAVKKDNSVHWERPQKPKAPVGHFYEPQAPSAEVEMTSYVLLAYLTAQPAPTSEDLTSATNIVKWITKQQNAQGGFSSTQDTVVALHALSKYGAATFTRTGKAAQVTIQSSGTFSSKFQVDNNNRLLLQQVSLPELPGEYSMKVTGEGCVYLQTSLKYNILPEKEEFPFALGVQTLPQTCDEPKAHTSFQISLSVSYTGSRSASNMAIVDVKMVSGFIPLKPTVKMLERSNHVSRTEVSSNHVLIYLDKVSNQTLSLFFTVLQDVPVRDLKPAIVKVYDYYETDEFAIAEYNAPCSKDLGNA

As a reminder, the stoichiometry N is the number of molecules, sites or subunits per partner or assembly. bovine trypsin (enzyme) gave a stoichiometry N of 1.
